Changes are numbered by the printed parent chain. Names and notes keep the numbering of the source.

Test in all cases: fluorescence polarisation; increasing amounts of SIN1 protein titrated to 1 µM mGppNHp-bound GTPase; 21°C; 30 mM Tris/HCl pH 7.5, 150 mM NaCl, 5 mM MgCl2, 3 mM dithiothreitol; quadratic ligand binding equation
Settings in all cases: both partners purified

The target in one assay is T1, KRAS4B ( (the printed accession is a …, UniProt P01116-2 1-188)).
T1 construct: KRAS isoform 4B, full length gene; Loaded with mant-GppNHp for fluorescence polarisation

For assay [1], the target named is T2, RIT1 ( (the printed accession is a …, UniProt Q92963 1-219)).
T2 construct: RIT1, full length gene; Loaded with mant-GppNHp for fluorescence polarisation

For a further assay, the target named is T3, RHEB ( (the printed accession is a …, UniProt Q15382 1-184)).
T3 construct: RHEB, full length gene; Loaded with mant-GppNHp for fluorescence polarisation

In the next assay the target is T4, RRAS ( (the printed accession is a …, UniProt P10301 1-218)).
T4 construct: RRAS (RRAS1), full length gene; Loaded with mant-GppNHp for fluorescence polarisation; also called RRAS1
T4 sequence (looked up): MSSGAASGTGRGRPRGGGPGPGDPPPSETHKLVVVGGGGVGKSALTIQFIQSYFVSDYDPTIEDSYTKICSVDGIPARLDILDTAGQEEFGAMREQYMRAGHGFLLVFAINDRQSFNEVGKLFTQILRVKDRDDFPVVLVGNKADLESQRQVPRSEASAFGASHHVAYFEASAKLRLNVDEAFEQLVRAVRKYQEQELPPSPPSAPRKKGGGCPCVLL

Another assay addresses T5, RALA ( (the printed accession is a …, UniProt P11233 1-206)).
T5 construct: RALA, full length gene; Loaded with mant-GppNHp for fluorescence polarisation
T5 sequence (looked up): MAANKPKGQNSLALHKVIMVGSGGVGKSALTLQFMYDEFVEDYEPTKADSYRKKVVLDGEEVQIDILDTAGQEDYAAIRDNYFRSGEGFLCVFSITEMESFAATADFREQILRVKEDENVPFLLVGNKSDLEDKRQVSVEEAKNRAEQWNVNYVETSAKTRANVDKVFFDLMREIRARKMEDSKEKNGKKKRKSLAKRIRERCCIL

Assay [2] addresses T6, NRAS ( (the printed accession is a …, UniProt P01111 1-189)).
T6 construct: NRAS, full length gene; Loaded with mant-GppNHp for fluorescence polarisation

Another assay has as its target T7, RAP2A ( (the printed accession is a …, UniProt P10114 1-183)).
T7 construct: RAP2A, full length gene; Loaded with mant-GppNHp for fluorescence polarisation
T7 sequence (looked up): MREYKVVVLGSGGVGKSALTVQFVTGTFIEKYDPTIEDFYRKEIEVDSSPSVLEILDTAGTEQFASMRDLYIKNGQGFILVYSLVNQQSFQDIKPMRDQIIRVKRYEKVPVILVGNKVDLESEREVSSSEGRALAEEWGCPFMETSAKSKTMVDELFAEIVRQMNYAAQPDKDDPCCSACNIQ

Another assay addresses T8, ERAS ( (the printed accession is a …, UniProt Q7Z444 1-233)).
T8 construct: ERAS, full length gene; Loaded with mant-GppNHp for fluorescence polarisation
T8 sequence (looked up): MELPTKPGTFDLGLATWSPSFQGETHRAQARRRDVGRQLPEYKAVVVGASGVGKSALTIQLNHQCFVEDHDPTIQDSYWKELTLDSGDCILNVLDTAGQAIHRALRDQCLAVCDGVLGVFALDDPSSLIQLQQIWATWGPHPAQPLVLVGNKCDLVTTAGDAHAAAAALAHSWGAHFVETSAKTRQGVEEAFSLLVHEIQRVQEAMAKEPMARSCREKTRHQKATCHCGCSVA

For a further assay, the target named is T9, RHOA ( (the printed accession is a …, UniProt P61586 1-193)).
T9 construct: RHOA, full length gene; Loaded with mant-GppNHp for fluorescence polarisation

Assay [3] deals with T10, KRAS4A ( (the printed accession is a …, UniProt P01116-1 1-189)).
T10 construct: KRAS isoform 4A, full length gene; Loaded with mant-GppNHp for fluorescence polarisation; A farnesylated KRAS4A from insect cells was used only in liposome flotation

Another assay addresses T11, TC21 ( (the printed accession is a …, UniProt P62070 1-204)).
T11 construct: RRAS2 (TC21), full length gene; Loaded with mant-GppNHp for fluorescence polarisation; also called RRAS2
T11 sequence (looked up): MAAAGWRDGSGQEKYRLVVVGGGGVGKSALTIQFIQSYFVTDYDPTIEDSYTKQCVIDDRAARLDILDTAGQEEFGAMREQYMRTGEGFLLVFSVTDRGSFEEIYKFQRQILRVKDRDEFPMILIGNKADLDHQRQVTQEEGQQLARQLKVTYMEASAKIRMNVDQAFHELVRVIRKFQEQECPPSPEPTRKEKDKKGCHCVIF

Assay [4] concerns the target T2, RIT1. The source holds these as a separate data set.
For assay [5], the target named is T10, KRAS4A. The source holds these as a separate data set.
The target in another assay is T12, HRAS ( (the printed accession is a …, UniProt P01112 1-189)).
T12 construct: HRAS, full length gene; Loaded with mant-GppNHp (or mant-GDP) for fluorescence polarisation; also called HRAS•mGppNHp; HRAS•mGDP

In assay [6] the target is T10, KRAS4A. The source holds these as a separate data set.
The target of assay [7] is T6, NRAS. The source holds these as a separate data set.

T6 sequence (P01111 whole entry): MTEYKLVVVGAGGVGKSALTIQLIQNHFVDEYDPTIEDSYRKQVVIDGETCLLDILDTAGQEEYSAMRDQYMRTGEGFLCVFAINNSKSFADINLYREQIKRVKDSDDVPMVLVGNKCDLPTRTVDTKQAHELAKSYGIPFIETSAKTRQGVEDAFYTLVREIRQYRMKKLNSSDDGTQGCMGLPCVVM
T12 sequence (P01112 whole entry): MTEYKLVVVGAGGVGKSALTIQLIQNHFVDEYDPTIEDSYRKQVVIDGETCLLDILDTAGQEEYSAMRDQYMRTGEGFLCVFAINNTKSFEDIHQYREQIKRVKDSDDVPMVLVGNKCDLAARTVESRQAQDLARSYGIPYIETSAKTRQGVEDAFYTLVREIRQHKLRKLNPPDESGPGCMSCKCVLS
T2 sequence (Q92963 whole entry): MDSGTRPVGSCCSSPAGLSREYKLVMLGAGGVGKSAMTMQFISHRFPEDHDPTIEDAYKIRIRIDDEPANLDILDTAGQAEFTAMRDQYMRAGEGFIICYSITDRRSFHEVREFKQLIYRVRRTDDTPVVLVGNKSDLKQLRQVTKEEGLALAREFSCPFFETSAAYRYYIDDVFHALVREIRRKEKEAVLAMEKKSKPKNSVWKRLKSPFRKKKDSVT
T3 sequence (Q15382 whole entry): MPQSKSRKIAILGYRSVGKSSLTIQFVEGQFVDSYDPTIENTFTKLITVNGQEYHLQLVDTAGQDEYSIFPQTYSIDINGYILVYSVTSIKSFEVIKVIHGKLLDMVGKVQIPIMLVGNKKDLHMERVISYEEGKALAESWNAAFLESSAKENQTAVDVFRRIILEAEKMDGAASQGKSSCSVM
T9 sequence (P61586 whole entry): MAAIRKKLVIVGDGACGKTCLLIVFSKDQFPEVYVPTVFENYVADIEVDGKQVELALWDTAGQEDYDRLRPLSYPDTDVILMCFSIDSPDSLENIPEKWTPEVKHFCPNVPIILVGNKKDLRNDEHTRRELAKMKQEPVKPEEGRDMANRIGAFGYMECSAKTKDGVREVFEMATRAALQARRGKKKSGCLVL

B1: SIN1-RBD (domain or fragment, UniProt Q9BPZ7 266-373, looked up)
chain: EKYSSPGLTSKESLFVRINAAHGFSLIQVDNTKVTMKEILLKAVKRRKGSQKVSGPQYRLEKQSEPNVAVDLDSTLESQSAWEFCLVRENSSRADGVFEEDSQIDIAT
notes: numbers count on isoform 1 (full length); As used in fluorescence polarisation; Limits: 266-373 in the methods, 279-353 in the results; also called SIN1-RBD^WT
Regarding B1, the Kd with KRAS4B was 33 µM; with RIT1 [1], 123 µM; with RHEB it was 358 µM; in the assay with RRAS, 123 µM; with RALA, 331 µM; with NRAS [2], 31 µM. For the same molecule, the Kd in the assay with RAP2A was 483 µM; with ERAS it was 171 µM; with RHOA, 535 µM; with KRAS4A [3], 34 µM; with TC21, 878 µM; with RIT1 [4], 112 µM. For the same molecule, the Kd with KRAS4A [5] was determined as 35 µM.

B2: SIN1-RBD^RR311-312EE (domain or fragment, UniProt Q9BPZ7 266-373, looked up)
chain: B1 chain with R46E, R47E
notes: numbers count on isoform 1 (full length); also called SIN-RBD^RR311,312EE; SIN1^RR311-312EE
Turning to B2, the results for the Kd with HRAS and with KRAS4A [6] were 461 µM and 952 µM, respectively.

B3: SIN1-RBD^FSL289-291REE (domain or fragment, UniProt Q9BPZ7 266-373, looked up)
chain: B1 chain with F24R, S25E, L26E
notes: numbers count on isoform 1 (full length); also called SIN-RBD^FSL289-291REE; SIN1^FSL289-291REE
Take B3: in the assay with KRAS4A [6], the Kd is 654 µM.

B4: SIN1-RBD^K307D (domain or fragment, UniProt Q9BPZ7 266-373, looked up)
chain: B1 chain with K42D
notes: numbers count on isoform 1 (full length); also called SIN-RBD^K307D; SIN1^K307D
As to B4, the Kd was determined as 324 µM with HRAS, 166 µM with NRAS [7] and 256 µM in the assay with KRAS4A [6].

Source of the values: article PMC9583166 (Frontiers in Cell and Developmental Biology, 2022).
